Reference: US20040018971A1 (published 2004)
Where no end group is shown, it is not given here. [ ]: non-standard residue; d: D form. Abu = CC[C@H](N)C(=O)O

Legend:
HLA-A*0201 = target: T1, HLA-A*0201 (human); assay: competition with 125I-labelled probe peptide for purified HLA-A*0201, gel filtration
T1 construct: Purified HLA class I molecule (MHC, no peptide specified); also called HLA-A2.1

HLA-A*0301 [1] = target: HLA-A*0301 (human); assay: inhibition of 125I probe peptide binding to purified HLA
HLA-A*1101 = HLA-A*1101 (human); assay: as above
HLA-A*6801 = HLA-A*6801 (human); assay: as above
HLA-A*0301 [2] = target: T2, HLA-A*0301 (human); assay: competition with 125I-labelled probe peptide on purified HLA-A*0301, gel filtration; ratio to standard peptide 941.12
T2 construct: Purified HLA molecule, 5 to 500 nM in the assay; also called HLA-A3

HLA-A*0101 [3] = target: T3, HLA-A*0101 (human); assay: competition with 125I-labelled probe peptide for purified HLA-A*0101, gel filtration
T3 construct: also called HLA-A1

HLA-A*0101 [4] = target: T4, HLA-A*0101 (human); assay: competition with 125I-labelled probe peptide for purified HLA-A*0101, gel filtration; ratio = IC50 of standard peptide 944.02 / IC50 of test peptide
T4 construct: also called HLA-A1

HLA-A*3101 = HLA-A*3101 (human); assay: inhibition of 125I probe peptide binding to purified HLA
HLA-B*0702 = HLA-B*0702 (human); assay: competition with 125I probe peptide, purified HLA
HLA-B*5101 = HLA-B*5101 (human); assay: competition with 125I probe peptide, purified HLA
HLA-B*5301 = HLA-B*5301 (human); assay: competition with 125I probe peptide, purified HLA

B1: HER2/neu peptide, position 15, 9 amino acids (peptide)
peptide: LLPPGAAST
notes: Synthetic peptide
- relative binding ratio (HLA-A*0201): 0.0007 ratio (IC50 of standard peptide / IC50 of test peptide)

B2: Her2/neu.450.V2K10 (peptide)
peptide: IVWLGLRSLK
notes: synthetic analog peptide
- IC50 (HLA-A*0301 [1]): 3.9 nM
- IC50 (HLA-A*1101): 128 nM
- IC50 (HLA-A*6801): 12 nM

B3: HER2/neu peptide, position 888, 10 amino acids (peptide)
peptide: WMALESILRR
- relative binding ratio (IC50 of standard peptide / IC50 of test peptide) (HLA-A*0301 [2]): 0.0085 relative binding ratio

B4: HER2/neu peptide, position 785, 10 amino acids (peptide)
peptide: LLGICLTSTV
notes: Synthetic peptide
- relative binding ratio (HLA-A*0201): 0.049 ratio (IC50 of standard peptide / IC50 of test peptide)

B5: HER2/neu peptide, position 12, 9 amino acids (peptide)
peptide: LLALLPPGA
notes: Synthetic peptide
- relative binding ratio (HLA-A*0201): 0.0008 ratio (IC50 of standard peptide / IC50 of test peptide)

B6: HER2/neu peptide, position 281, 9 amino acids (peptide)
peptide: SMPNPEGRY
- relative binding ratio (HLA-A*0101 [3]): 0.0028 ratio (IC50 of standard peptide / IC50 of test peptide)

B7: HER2/neu peptide, position 772, 10 amino acids (peptide)
peptide: YVMAGVGSPY
- relative binding ratio (HLA-A*0101 [3]): 1.1 ratio (IC50 of standard peptide / IC50 of test peptide)

B8: HER2/neu peptide, position 479, 9 amino acids (peptide)
peptide: TVPWDQLFR
- relative binding ratio (IC50 of standard peptide / IC50 of test peptide) (HLA-A*0301 [2]): 0.0006 relative binding ratio

B9: HER2/neu peptide, position 1213, 9 amino acids (peptide)
peptide: FSPAFDNLY
- relative binding ratio (HLA-A*0101 [3]): 0.043 ratio (IC50 of standard peptide / IC50 of test peptide)

B10: HER2/neu peptide, position 154, 10 amino acids (peptide)
peptide: LIQRNPQLCY
- relative binding ratio (HLA-A*0101 [4]): 0.03 ratio

B11: HER2/neu peptide, position 915, 9 amino acids (peptide)
peptide: LMTFGAKPY
- relative binding ratio (HLA-A*0101 [3]): 0.0011 ratio (IC50 of standard peptide / IC50 of test peptide)

B12: HER2/neu peptide, position 1213, 9 amino acids (peptide)
peptide: FSPAFDNLY
- relative binding ratio (HLA-A*0101 [4]): 0.043 ratio

B13: HER2/neu peptide, position 129, 10 amino acids (peptide)
peptide: VTGASPGGLR
- relative binding ratio (IC50 of standard peptide / IC50 of test peptide) (HLA-A*0301 [2]): 0.0002 relative binding ratio

B14: HER2/neu peptide, position 55, 10 amino acids (peptide)
peptide: VVQGNLELTY
- relative binding ratio (HLA-A*0101 [3]): 0.018 ratio (IC50 of standard peptide / IC50 of test peptide)

B15: HER2/neu peptide, position 322, 9 amino acids (peptide)
peptide: VTAEDGTQR
- relative binding ratio (IC50 of standard peptide / IC50 of test peptide) (HLA-A*0301 [2]): 0.0002 relative binding ratio

B16: HER2/neu peptide, position 662, 9 amino acids (peptide)
peptide: LLVVVLGVV
notes: Synthetic peptide
- relative binding ratio (HLA-A*0201): 0.0001 ratio (IC50 of standard peptide / IC50 of test peptide)

B17: HER2/neu peptide, position 973, 9 amino acids (peptide)
peptide: VSEFSRMAR
- relative binding ratio (IC50 of standard peptide / IC50 of test peptide) (HLA-A*0301 [2]): -0.0002 relative binding ratio

B18: HER2/neu peptide, position 997, 9 amino acids (peptide)
peptide: ASPLDSTFY
- relative binding ratio (HLA-A*0101 [4]): 0.029 ratio

B19: HER2/neu peptide, position 727, 9 amino acids (peptide)
peptide: GSGAFGTVY
- relative binding ratio (HLA-A*0101 [4]): 0.0011 ratio

B20: HER2/neu peptide, position 546, 9 amino acids (peptide)
peptide: VLQGLPREY
- relative binding ratio (IC50 of standard peptide / IC50 of test peptide) (HLA-A*0301 [2]): 0.0012 relative binding ratio

B21: HER2/neu peptide, position 11, 10 amino acids (peptide)
peptide: LLLALLPPGA
notes: Synthetic peptide
- relative binding ratio (HLA-A*0201): 0.0054 ratio (IC50 of standard peptide / IC50 of test peptide)

B22: HER2/neu peptide, position 85, 10 amino acids (peptide)
peptide: LIAHNQVRQV
notes: Synthetic peptide
- relative binding ratio (HLA-A*0201): 0.0001 ratio (IC50 of standard peptide / IC50 of test peptide)

B23: HER2/neu peptide, position 295, 9 amino acids (peptide)
peptide: CVTACPYNY
- relative binding ratio (HLA-A*0101 [3]): 0.0042 ratio (IC50 of standard peptide / IC50 of test peptide)

B24: HER2/neu peptide, position 55, 10 amino acids (peptide)
peptide: VVQGNLELTY
- relative binding ratio (IC50 of standard peptide / IC50 of test peptide) (HLA-A*0301 [2]): 0.0024 relative binding ratio

B25: HER2/neu peptide, position 265, 10 amino acids (peptide)
peptide: ELHCPALVTY
- relative binding ratio (HLA-A*0101 [4]): 0.0015 ratio

B26: HER2/neu peptide, position 888, 9 amino acids (peptide)
peptide: WMALESILR
- relative binding ratio (IC50 of standard peptide / IC50 of test peptide) (HLA-A*0301 [2]): -0.0002 relative binding ratio

B27: HER2/neu peptide, position 402, 10 amino acids (peptide)
peptide: TLEEITGYLY
notes: also called Her2/neu.402
- relative binding ratio (HLA-A*0101 [3]): 1.1 ratio (IC50 of standard peptide / IC50 of test peptide)

B28: Her2/neu.148.V2 (peptide)
peptide: IVKGGVLIQR
notes: synthetic analog peptide
- IC50 (HLA-A*0301 [1]): 275 nM
- IC50 (HLA-A*1101): 7500 nM
- IC50 (HLA-A*3101): 72 nM
- IC50 (HLA-A*6801): 29 nM

B29: HER2/neu peptide, position 1119, 9 amino acids (peptide)
peptide: PLPSETDGY
- relative binding ratio (HLA-A*0101 [3]): 0.0017 ratio (IC50 of standard peptide / IC50 of test peptide)

B30: HER2/neu peptide, position 860, 10 amino acids (peptide)
peptide: KITDFGLARL
notes: Synthetic peptide
- relative binding ratio (HLA-A*0201): 0.002 ratio (IC50 of standard peptide / IC50 of test peptide)

B31: HER2/neu peptide, position 12, 10 amino acids (peptide)
peptide: LLALLPPGAA
notes: Synthetic peptide
- relative binding ratio (HLA-A*0201): 0.0006 ratio (IC50 of standard peptide / IC50 of test peptide)

B32: HER2/neu peptide, position 545, 10 amino acids (peptide)
peptide: RVLQGLPREY
- relative binding ratio (HLA-A*0101 [3]): 0.0015 ratio (IC50 of standard peptide / IC50 of test peptide)

B33: HER2/neu peptide, position 727, 9 amino acids (peptide)
peptide: GSGAFGTVY
- relative binding ratio (HLA-A*0101 [3]): 0.0011 ratio (IC50 of standard peptide / IC50 of test peptide)

B34: HER2/neu peptide, position 883, 9 amino acids (peptide)
peptide: KVPIKWMAL
notes: Synthetic peptide; also called KVPIKWMAL
- relative binding ratio (HLA-A*0201): 0.0002 ratio (IC50 of standard peptide / IC50 of test peptide)

B35: HER2/neu peptide, position 114, 10 amino acids (peptide)
peptide: LAVLDNGDPL
notes: Synthetic peptide
- relative binding ratio (HLA-A*0201): 0.0002 ratio (IC50 of standard peptide / IC50 of test peptide)

B36: HER2/neu peptide, position 822, 9 amino acids (peptide)
peptide: LLNWCMQIA
notes: Synthetic peptide
- relative binding ratio (HLA-A*0201): 0.0046 ratio (IC50 of standard peptide / IC50 of test peptide)

B37: Her2/neu.218 (peptide)
peptide: TVCAGGCAR
notes: synthetic peptide
- IC50 (HLA-A*1101): 261 nM
- IC50 (HLA-A*6801): 83 nM

B38: HER2/neu peptide, position 3, 10 amino acids (peptide)
peptide: LAALCRWGLL
notes: Synthetic peptide
- relative binding ratio (HLA-A*0201): 0.0022 ratio (IC50 of standard peptide / IC50 of test peptide)

B39: HER2/neu peptide, position 714, 10 amino acids (peptide)
peptide: ILKETELRKV
notes: Synthetic peptide
- relative binding ratio (HLA-A*0201): 0.0001 ratio (IC50 of standard peptide / IC50 of test peptide)

B40: HER2/neu peptide, position 997, 9 amino acids (peptide)
peptide: ASPLDSTFY
- relative binding ratio (HLA-A*0101 [3]): 0.029 ratio (IC50 of standard peptide / IC50 of test peptide)

B41: HER2/neu peptide, position 747, 9 amino acids (peptide)
peptide: KIPVAIKVL
notes: Synthetic peptide
- relative binding ratio (HLA-A*0201): 0.0002 ratio (IC50 of standard peptide / IC50 of test peptide)

B42: HER2/neu peptide, position 1130, 10 amino acids (peptide)
peptide: PLTCSPQPEY
- relative binding ratio (HLA-A*0101 [3]): 0.0072 ratio (IC50 of standard peptide / IC50 of test peptide)

B43: HER2/neu peptide, position 1008, 10 amino acids (peptide)
peptide: LLEDDDMGDL
notes: Synthetic peptide
- relative binding ratio (HLA-A*0201): 0.0001 ratio (IC50 of standard peptide / IC50 of test peptide)

B44: HER2/neu peptide, position 851, 10 amino acids (peptide)
peptide: VLVKSPNHVK
- relative binding ratio (IC50 of standard peptide / IC50 of test peptide) (HLA-A*0301 [2]): 0.082 relative binding ratio

B45: Her2/neu.218.B3B7K9 (peptide)
peptide: TV[Abu]AGG[Abu]AK
notes: synthetic analog peptide; also called TVBAGGBAK
- IC50 (HLA-A*0301 [1]): 24 nM
- IC50 (HLA-A*1101): 29 nM
- IC50 (HLA-A*6801): 7.3 nM

B46: HER2/neu peptide, position 293, 9 amino acids (peptide)
peptide: ASCVTACPY
notes: Synthetic peptide; also called Her2/neu.293
- relative binding ratio (HLA-A*0101 [4]): 0.055 ratio

B47: HER2/neu peptide, position 154, 10 amino acids (peptide)
peptide: LIQRNPQLCY
- relative binding ratio (HLA-A*0101 [3]): 0.03 ratio (IC50 of standard peptide / IC50 of test peptide)

B48: HER2/neu peptide, position 265, 10 amino acids (peptide)
peptide: ELHCPALVTY
- relative binding ratio (HLA-A*0101 [3]): 0.0015 ratio (IC50 of standard peptide / IC50 of test peptide)

B49: HER2/neu peptide, position 84, 9 amino acids (peptide)
peptide: VLIAHNQVR
- relative binding ratio (IC50 of standard peptide / IC50 of test peptide) (HLA-A*0301 [2]): 0.0033 relative binding ratio

B50: HER2/neu peptide, position 661, 9 amino acids (peptide)
peptide: ILLVVVLGV
notes: Synthetic peptide
- relative binding ratio (HLA-A*0201): 0.002 ratio (IC50 of standard peptide / IC50 of test peptide)

B51: HER2/neu peptide, position 597, 9 amino acids (peptide)
peptide: VARCPSGVK
- relative binding ratio (IC50 of standard peptide / IC50 of test peptide) (HLA-A*0301 [2]): 0.01 relative binding ratio

B52: Her2/neu.600.I11 (peptide)
peptide: CPSGVKPDLSI
notes: analog peptide
- IC50 (HLA-B*0702): 290 nM
- IC50 (HLA-B*5101): 138 nM
- IC50 (HLA-B*5301): 344 nM

B53: HER2/neu peptide, position 681, 10 amino acids (peptide)
peptide: KIRKYTMRRL
notes: Synthetic peptide
- relative binding ratio (HLA-A*0201): 0.0001 ratio (IC50 of standard peptide / IC50 of test peptide)

B54: HER2/neu peptide, position 914, 10 amino acids (peptide)
peptide: ELMTFGAKPY
- relative binding ratio (HLA-A*0101 [3]): 0.0082 ratio (IC50 of standard peptide / IC50 of test peptide)

B55: HER2/neu peptide, position 739, 9 amino acids (peptide)
peptide: WIPDGENVK
- relative binding ratio (IC50 of standard peptide / IC50 of test peptide) (HLA-A*0301 [2]): 0.0002 relative binding ratio

B56: HER2/neu peptide, position 868, 10 amino acids (peptide)
peptide: RLLDIDETEY
- relative binding ratio (HLA-A*0101 [3]): 1.3 ratio (IC50 of standard peptide / IC50 of test peptide)

B57: HER2/neu peptide, position 293, 9 amino acids (peptide)
peptide: ASCVTACPY
notes: also called Her2/neu.293
- relative binding ratio (HLA-A*0101 [3]): 0.055 ratio (IC50 of standard peptide / IC50 of test peptide)
